Source: patent US20170313756A1 (Sanofi, published 2017)
[ ]: non-standard residue; d: D form. The star is where a group is joined. Butanoyl(4-Ph) = O=C(CCCc1ccccc1)*; Stearyl = stearyl group

B1: peptide 872 (peptide)
peptide: VPKGWRFREMSYS
modifications: N-terminal acetyl (Ac); C-terminal amide; D-isomers at all residues except Gly 4
B2: peptide 895 (peptide)
peptide: VPKGWRFHEMSYS
modifications: N-terminal acetyl (Ac); C-terminal amide; L-His at 8; D-isomers at all other residues except Gly 4
B3: peptide 886 (peptide)
peptide: Ac-[dV][dP][dK]G[dW][dR][dF][dH][dS][dI][dI][dS][dS]-NH2
SMILES: CC[C@@H](C)[C@@H](NC(=O)[C@@H](CO)NC(=O)[C@@H](Cc1c[nH]cn1)NC(=O)[C@@H](Cc1ccccc1)NC(=O)[C@@H](CCCNC(=N)N)NC(=O)[C@@H](Cc1c[nH]c2ccccc12)NC(=O)CNC(=O)[C@@H](CCCCN)NC(=O)[C@H]1CCCN1C(=O)[C@H](NC(C)=O)C(C)C)C(=O)N[C@@H](C(=O)N[C@H](CO)C(=O)N[C@H](CO)C(N)=O)[C@H](C)CC
B4: peptide 893 (peptide)
peptide: VPKGWRFHEMSYS
modifications: N-terminal acetyl (Ac); C-terminal amide; L-Trp at 5; D-isomers at all other residues except Gly 4
B5: retro-inverso α-MSH (peptide)
peptide: VPKGWRFHEMSYS
modifications: N-terminal acetyl (Ac); C-terminal amide; D-isomers at all residues except Gly 4
B6: peptide 880 (peptide)
peptide: Ac-[dV][dP][dK]G[dW][dR]F[dH][dS][dI][dI][dS][dS]-NH2
SMILES: CC[C@@H](C)[C@@H](NC(=O)[C@@H](CO)NC(=O)[C@@H](Cc1c[nH]cn1)NC(=O)[C@H](Cc1ccccc1)NC(=O)[C@@H](CCCNC(=N)N)NC(=O)[C@@H](Cc1c[nH]c2ccccc12)NC(=O)CNC(=O)[C@@H](CCCCN)NC(=O)[C@H]1CCCN1C(=O)[C@H](NC(C)=O)C(C)C)C(=O)N[C@@H](C(=O)N[C@H](CO)C(=O)N[C@H](CO)C(N)=O)[C@H](C)CC
B7: peptide 878 (peptide)
peptide: VPKGWRFHEXSYS
modifications: N-terminal acetyl (Ac); C-terminal amide; D-buthionine at 10; D-isomers at all residues except Gly 4
B8: peptide 894 (peptide)
peptide: VPKGWRFHEMSYS
modifications: N-terminal acetyl (Ac); C-terminal amide; L-Arg at 6; D-isomers at all other residues except Gly 4
B9: peptide 869 (peptide)
peptide: VPKGWRXHEMSYS
modifications: N-terminal acetyl (Ac); C-terminal amide; D-cyclohexylalanine (D-Cha) at 7; D-isomers at all residues except Gly 4
B10: peptide 890 (peptide)
peptide: VPKGWRXHEXSYS
modifications: N-terminal acetyl (Ac); C-terminal amide; D-Cha at 7; D-buthionine at 10; D-isomers at all residues except Gly 4

Each binder was assayed against T1, melanocortin 3 receptor (MC3R) (UniProt P41968 1-323, limits assumed) (assay: 125I-NDP-MSH competition, HEK293 membranes).
T1 construct: whole, on cells; Membrane preparations; also called MCR-3
T1 sequence (P41968 whole entry): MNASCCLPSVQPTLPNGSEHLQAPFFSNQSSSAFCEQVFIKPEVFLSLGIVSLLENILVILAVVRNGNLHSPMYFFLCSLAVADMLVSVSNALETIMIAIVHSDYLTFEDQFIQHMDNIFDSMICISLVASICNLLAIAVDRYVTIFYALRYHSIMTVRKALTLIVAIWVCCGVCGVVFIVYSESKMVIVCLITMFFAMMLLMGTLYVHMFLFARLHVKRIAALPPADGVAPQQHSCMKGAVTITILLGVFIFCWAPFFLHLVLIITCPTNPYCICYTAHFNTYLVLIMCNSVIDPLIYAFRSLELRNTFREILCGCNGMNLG
Excerpt: (§1) The mixtures were filtered through 96-well GFC filters (Millipore, Billerica, Mass.), washed 3 times with binding buffer without BSA, dried and counted.

Point of comparison: {Butanoyl(4-Ph)}-H[dF]RW-NH2 [(Ph(CH2)3CO) HfRW (819)], Ki 277 nM. Against it:
- Stearyl-H[dF]RW-NH2 [(Stearyl) HfRW (820)] — 4.9-fold higher, 1370 nM

These binders were tested against T2, melanocortin 1 receptor (MC1R) (UniProt Q01726 1-317, limits assumed) (assay: 125I-NDP-MSH competition, HEK293 membranes).
T2 construct: whole, on cells; Used as membrane preparations, not whole cells; also called MCR-1; MCR1
T2 sequence (Q01726 whole entry): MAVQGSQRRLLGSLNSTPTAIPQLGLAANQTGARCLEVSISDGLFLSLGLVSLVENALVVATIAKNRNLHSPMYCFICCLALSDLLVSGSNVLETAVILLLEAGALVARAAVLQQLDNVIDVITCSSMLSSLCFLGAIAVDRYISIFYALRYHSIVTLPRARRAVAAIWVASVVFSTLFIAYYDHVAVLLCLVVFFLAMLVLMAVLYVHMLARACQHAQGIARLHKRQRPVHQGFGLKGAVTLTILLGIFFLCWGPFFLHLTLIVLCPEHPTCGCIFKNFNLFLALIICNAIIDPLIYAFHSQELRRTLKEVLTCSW
Excerpt: as §1

Point of comparison: Stearyl-H[dF]RW-NH2 [(Stearyl) HfRW (820)], Ki 1.3 nM. Against it:
- SYSMEHXRWGKPV (N-terminal acetyl (Ac); C-terminal amide; L-cyclohexylalanine (L-Cha) at 7, also called analog 892) [peptide 892] — 2.5-fold lower, 0.51 nM
- {Butanoyl(4-Ph)}-H[dF]RW-NH2 [(Ph(CH2)3CO) HfRW (819)] — 19-fold lower, 0.07 nM

The binders below were run against T3, melanocortin 5 receptor (MC5R) (UniProt P33032 1-325, limits assumed) (assay: 125I-NDP-MSH competition, HEK293 membranes).
T3 construct: whole, on cells; Membrane preparations; also called MCR-5
T3 sequence (P33032 whole entry): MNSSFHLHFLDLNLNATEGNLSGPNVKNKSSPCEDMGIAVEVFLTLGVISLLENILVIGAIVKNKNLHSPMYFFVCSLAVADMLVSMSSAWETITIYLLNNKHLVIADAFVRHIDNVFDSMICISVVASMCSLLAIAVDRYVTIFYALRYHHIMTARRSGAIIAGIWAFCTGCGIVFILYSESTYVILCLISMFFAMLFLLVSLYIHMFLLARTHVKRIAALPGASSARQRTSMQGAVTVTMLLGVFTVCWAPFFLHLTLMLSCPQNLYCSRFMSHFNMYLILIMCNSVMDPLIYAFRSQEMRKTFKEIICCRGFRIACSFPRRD
Excerpt: as §1

Point of comparison: {Butanoyl(4-Ph)}-H[dF]RW-NH2 [(Ph(CH2)3CO) HfRW (819)], Ki ~3000 nM. Against it:
- Stearyl-H[dF]RW-NH2 [(Stearyl) HfRW (820)] — 3.5-fold lower, 860 nM

These binders were tested against mouse MC1R (on murine B16-F1 melanoma cells) (mouse, UniProt Q01727 1-315) (assay: cell-based or functional assay).
Sequence of mouse MC1R (on murine B16-F1 melanoma cells) (Q01727 whole entry): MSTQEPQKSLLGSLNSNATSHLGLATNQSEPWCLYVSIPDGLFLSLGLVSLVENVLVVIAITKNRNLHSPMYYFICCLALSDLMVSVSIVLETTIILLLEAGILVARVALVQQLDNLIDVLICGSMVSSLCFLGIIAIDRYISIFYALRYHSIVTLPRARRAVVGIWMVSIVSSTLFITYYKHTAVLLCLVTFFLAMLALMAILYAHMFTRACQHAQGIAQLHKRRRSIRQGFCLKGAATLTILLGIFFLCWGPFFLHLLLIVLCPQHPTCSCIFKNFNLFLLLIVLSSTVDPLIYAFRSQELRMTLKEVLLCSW

Point of comparison: B4, “EC50, cAMP in B16-F1 cells” value 270 nM. Against it:
- B1 — 7.4-fold higher, 2000 nM
- SYSMEHXRWGKPV (N-terminal acetyl (Ac); C-terminal amide; L-cyclohexylalanine (L-Cha) at 7, also called analog 892) [peptide 892] — 13-fold lower, 21 nM
- B2 — within 1.5-fold, 300 nM
- B3 — 140-fold lower, 2 nM
- B5 — 36-fold higher, 9700 nM
- B6 — 12-fold lower, 23 nM
- B7 — 2.1-fold lower, 130 nM
- B8 — 790-fold higher, 212000 nM
- B9 — 19-fold lower, 14 nM
- B10 — 13-fold higher, 3600 nM
